We go through 167 variants from the RNAGym collection of RNA variant scans (doi:10.7554/elife.80360).

B1: Hairpin Ribozyme (parent)
chain: GUCCUCUUUCACGUGCGCGUGAAAGAGAGAAGUGAACCAGAGAAACACACGUUGUGGUAUAUUACCUGGUA

In the data set the parent is B1. Put plainly: self-cleavage, relative activity (ratio to wild type); higher = more cleavage; co-transcriptional.
For the variant U8A G54C, the self-cleavage amounted to 0.284.

On to A23G G68C, for which the self-cleavage was found to be 0.101.

For the variant U8C G21A, the self-cleavage turned out to be 0.264.

As to G51U U62A, the self-cleavage was determined as 0.25.

For the variant G15A U60A, the self-cleavage worked out at 0.767.

Turning to A24U U53G, the self-cleavage came to 0.674.

In the case of C50U U55C, the self-cleavage was 0.615.

Take C50U U55A: the self-cleavage stood at 0.32.

On to U8A C12U, for which the self-cleavage worked out at 0.747.

With G19C U52A, the self-cleavage amounted to 0.957.

With G1U A23U, the self-cleavage worked out at 0.11.

In the case of A28C A44U, the self-cleavage turned out to be 0.046.

As for U52C G69U, the self-cleavage amounted to 0.21.

In the case of C18U A41C, the self-cleavage was 1.09.

In the case of U9A C66A, the self-cleavage was determined as 0.166.

For A43U U52G, the self-cleavage is 0.139.

Take G57A G68A: the self-cleavage turned out to be 0.119.

As for C65A C66A, the self-cleavage worked out at 0.15.

With A24C G69U, the self-cleavage was 0.188.

For C38U A49C, the self-cleavage worked out at 0.245.

With A31C A44U, the self-cleavage stood at 0.109.

With U14A G51U, the self-cleavage came out at 0.925.

Take G54C G56U: the self-cleavage amounted to 0.166.

With G1A G42C, the self-cleavage came to 0.213.

For A30C A64C, the self-cleavage was 0.127.

Consider C37A C66A, for which the self-cleavage worked out at 0.0612.

For G21U A64C, the self-cleavage amounted to 0.149.

On to U33A A36G, for which the self-cleavage is 0.202.

On to A64G U67C, for which the self-cleavage was 0.122.

With G40A G42A, the self-cleavage amounted to 0.0412.

As for U7G A35U, the self-cleavage worked out at 0.921.

Turning to C12A U63A, the self-cleavage was 0.102.

Turning to A47U U62C, the self-cleavage amounted to 0.264.

For A23C C50A, the self-cleavage worked out at 0.318.

Consider U7C U33C, for which the self-cleavage was 0.157.

For the variant U2C G21A, the self-cleavage worked out at 0.0868.

U8C A44G: the self-cleavage was 0.0935.

As to G51A U70C, the self-cleavage was found to be 1.1.

As to C48U U53G, the self-cleavage stood at 0.112.

A11G G17C: the self-cleavage worked out at 0.571.

For C16U G54C, the self-cleavage was found to be 0.411.

With U20G U53C, the self-cleavage turned out to be 0.633.

As to C46U G54A, the self-cleavage was determined as 0.237.

Turning to G25U G29U, the self-cleavage was 0.126.

In the case of A30U A31U, the self-cleavage is 0.149.

Take G40C C50A: the self-cleavage was 0.0683.

Consider U14C U53A, for which the self-cleavage was determined as 1.18.

For the variant G29A A30G, the self-cleavage stood at 0.135.

Take U8G A59G: the self-cleavage was 0.121.

Consider G19U G32A, for which the self-cleavage came out at 0.124.

Regarding C3G G27C, the self-cleavage is 0.0838.

In the case of A30U G34U, the self-cleavage is 0.805.

Take C16U A49G: the self-cleavage was determined as 0.659.

Consider A11G G32C, for which the self-cleavage came out at 0.0578.

In the case of C10A G68U, the self-cleavage came out at 0.201.

Consider G17A A23G, for which the self-cleavage is 0.824.

On to A23G A35C, for which the self-cleavage was determined as 1.

With U8A A36C, the self-cleavage came to 0.412.

Consider G32A G69U, for which the self-cleavage worked out at 0.161.

Turning to U20G A23G, the self-cleavage was 0.98.

Consider C4U U70G, for which the self-cleavage was 0.214.

On to G34U U55A, for which the self-cleavage is 1.48.

Turning to G29A C38U, the self-cleavage was determined as 0.19.

For A39C U52C, the self-cleavage came out at 0.56.

Take A31U G34A: the self-cleavage was 0.0803.

As to C16G U70C, the self-cleavage stood at 0.829.

In the case of G21U A36C, the self-cleavage came to 0.463.

Take G21U A36U: the self-cleavage was determined as 0.661.

Consider U52C A71U, for which the self-cleavage is 0.913.

On to G1A A44C, for which the self-cleavage is 0.2.

Regarding C38G G40U, the self-cleavage came to 0.169.

Turning to A28G G57C, the self-cleavage was 0.263.

As to G15C C50A, the self-cleavage was 0.169.

As to C4U C10U, the self-cleavage is 0.224.

As to U9A A22U, the self-cleavage is 0.907.

As to C66U G69U, the self-cleavage was 0.187.

A47C G51U: the self-cleavage was determined as 0.392.

C6U U8C: the self-cleavage was determined as 0.686.

Turning to U9A A26G, the self-cleavage turned out to be 0.825.

Consider A22C A47C, for which the self-cleavage worked out at 0.24.

In the case of C38G U70G, the self-cleavage came to 0.216.

As to A39G A45G, the self-cleavage came out at 0.0935.

Take G40U U52C: the self-cleavage came to 0.333.

Regarding C4G G29A, the self-cleavage was found to be 0.0497.

For G1U U58C, the self-cleavage came to 0.0791.

G34C A39G: the self-cleavage was determined as 1.03.

For U5A G51U, the self-cleavage was found to be 0.389.

Consider U14G G29C, for which the self-cleavage stood at 0.169.

As to C46U U63G, the self-cleavage stood at 0.221.

For the variant U5G U20C, the self-cleavage was found to be 0.337.

Regarding A11G U70A, the self-cleavage was found to be 0.627.

In the case of A11U U55C, the self-cleavage stood at 0.118.

Turning to A45U G68A, the self-cleavage is 0.169.

Take G19A U55C: the self-cleavage was 0.123.

On to U5G A47C, for which the self-cleavage worked out at 0.102.

Turning to C46A U55C, the self-cleavage was determined as 0.324.

As for C16G G21A, the self-cleavage was determined as 0.515.

Consider A26G G69A, for which the self-cleavage came to 0.451.

On to U33C G42U, for which the self-cleavage was 0.115.

Take A30G G34C: the self-cleavage turned out to be 0.79.

On to C6U G68U, for which the self-cleavage stood at 0.239.

For A26U C37U, the self-cleavage came out at 0.466.

U14G G54U: the self-cleavage was 0.491.

U14G G54C: the self-cleavage is 0.315.

Turning to G34U G51A, the self-cleavage was 1.57.

Consider U20A G57C, for which the self-cleavage worked out at 0.215.

U2G A23C: the self-cleavage stood at 0.289.

As to A35G U62A, the self-cleavage was determined as 0.368.

In the case of U7G G40U, the self-cleavage is 0.214.

In the case of G21A A35C, the self-cleavage was 0.788.

For A23C A59C, the self-cleavage turned out to be 0.193.

Turning to A23G U58A, the self-cleavage amounted to 0.662.

Consider G56A C66U, for which the self-cleavage was 0.296.

Regarding U9C G68C, the self-cleavage was 0.108.

Turning to A44U A49U, the self-cleavage was 0.109.

Take A28C U52C: the self-cleavage is 0.584.

C18A A64U: the self-cleavage amounted to 0.158.

For A31U C37A, the self-cleavage came to 0.0463.

For A22C G69U, the self-cleavage turned out to be 0.152.

In the case of G29C G42C, the self-cleavage worked out at 0.142.

As for G21U G69U, the self-cleavage is 0.211.

As to A26G A31U, the self-cleavage is 0.183.

On to G32C A41C, for which the self-cleavage came out at 0.0995.

As for U7A U52G, the self-cleavage worked out at 0.733.

Consider A31G C48U, for which the self-cleavage amounted to 0.257.

Consider A31G C48G, for which the self-cleavage turned out to be 0.1.

Consider A28G C65U, for which the self-cleavage was 0.498.

As to U52A U67G, the self-cleavage turned out to be 0.408.

With G17A C50U, the self-cleavage amounted to 0.373.

As for A59C C65G, the self-cleavage was 0.246.

As to U8G C46U, the self-cleavage came out at 0.195.

On to C12G G56C, for which the self-cleavage worked out at 0.154.

As to C3A U55G, the self-cleavage was 0.193.

As to U20C A41U, the self-cleavage is 1.36.

As to U9A G34U, the self-cleavage was found to be 1.19.

In the case of G1C G68U, the self-cleavage amounted to 0.209.

With A64G A71U, the self-cleavage was determined as 0.287.

For C37G G69A, the self-cleavage was 0.346.

Regarding G1U A59U, the self-cleavage is 0.195.

With C46U C65U, the self-cleavage was 0.216.

As for A26G U33C, the self-cleavage turned out to be 0.0771.

Regarding C18A A47G, the self-cleavage was found to be 0.216.

On to C37U U70A, for which the self-cleavage is 0.544.

As to G17U A47U, the self-cleavage is 0.101.

On to G15U U70G, for which the self-cleavage was 0.873.

With G25A G40A, the self-cleavage turned out to be 0.191.

Take G40A C66U: the self-cleavage worked out at 0.832.

In the case of C18A A45C, the self-cleavage was 0.173.

As to A39U A47G, the self-cleavage was 0.158.

Regarding A43G, the self-cleavage worked out at 0.148.

For A30G G69A, the self-cleavage stood at 0.12.

For G69A A71U, the self-cleavage amounted to 0.152.

As to C10G U52A, the self-cleavage turned out to be 0.705.

On to G27U, for which the self-cleavage was 0.282.

In the case of U62A G68A, the self-cleavage is 0.187.

As for U20A C66A, the self-cleavage stood at 0.231.

As to A39G C48A, the self-cleavage came to 0.0878.

As for G13A G15A, the self-cleavage was 0.839.

For the variant U52A G54U, the self-cleavage stood at 0.64.

Turning to C3U A36C, the self-cleavage came to 0.369.

For the variant G34U G68U, the self-cleavage was 0.95.

Regarding G34U G68C, the self-cleavage was found to be 0.686.

Consider C12A U70A, for which the self-cleavage stood at 0.673.

Take U33A G40U: the self-cleavage came out at 0.126.

As for G32C C50A, the self-cleavage amounted to 0.109.

G32C C50G: the self-cleavage turned out to be 0.14.

As to G27C G40C, the self-cleavage worked out at 0.107.
